Experimental data from the RNAGym collection of RNA variant scans (doi:10.7554/elife.80360).

B1: HDV Ribozyme (parent)
chain: GGCCGGCAUGGUCCCAGCCUCCUCGCUGGCGCCGGCUGGGCAACAUUCCGAGGGGACCGUCCCCUCGGUAAUGGCGAAUGGGACCCA

Variants of: B1
Assay: self-cleavage, relative activity (ratio to wild type); higher = more cleavage; co-transcriptional

Variant | self-cleavage
C36U G81C | 0.12
G17C G54A | 0.262
C7G U72C | 0
A51G A83C | 0.199
G40A U69A | 0.892
U47G A77G | 0.923
U23A G54A | 1.01
C4A C64A | 0.157
A45U G74U | 0.305
C22G G52A | 0.112
U12A C86G | 0.32
G38U A71U | 0.222
A71G U72A | 0.573
C33U G80U | 0.179
A70G C85A | 1.07
C62G C64U | 0.485
C36G C64U | 0.138
G31A C48G | 0.456
G35A G54C | 0.69
C14U G50C | 1.11
G40C G81U | 0.162
C26A C49G | 0.867
C21G G34C | 0.111
A16G G73A | 0.396

Variant | self-cleavage
G2C G55U | 0.0346
C44G U65C | 0.597
G54C A83U | 0.631
U27G U60G | 0.978
U9C C24G | 0.0536
A70U U72C | 0.653
C7G G73U | 0.0831
G38A U46G | 0.111
A51C G76U | 1.11
C49G A83U | 0.35
G17U A71U | 0.443
C7A G68A | 0.464
G28C A78U | 0.0811
C36G C48G | 0
G50A C63U | 1.13
G35C A51G | 0.415
G2C G80A | 0.0573
U23G C44U | 0.325
G29A C85G | 0.119
U20A G55A | 0.0959
G1C U65C | 0.128
G40A C49U | 0.95
G50A A87G | 1.01
U46G G55U | 0.569

Variant | self-cleavage
A43G A56U | 0.688
G6U U37C | 0.943
C21A A77C | 0
C63U U65C | 1.14
A51C C84G | 0.536
C36G U79G | 0.0437
U47A C86U | 0.88
C3U U65G | 0.682
G5C A8U | 0.0665
C22G U65A | 0.0504
A16G C57G | 1.2
C4A C26A | 0.332
G10C C26U | 0.997
C36G A83G | 0.151
G2A U72A | 0.053
U23G C26A | 0.739
A45C G50C | 0.504
G1A A51U | 0
C62U U79A | 0.95
A45G G54C | 0.65
A71G G74U | 0.658
C14G C22G | 0
G67A A78C | 0.0963
G73C G76U | 0.659

Variant | self-cleavage
C48A A77U | 0.673
C48U C86A | 0.985
G53C C85A | 0.955
C58U C64G | 0.895
G5U C24U | 0.115
U47G U65G | 0.95
C13U U20A | 0.0831
C14G C64G | 0.485
U23A A42U | 0.57
C26G G39C | 0.18
C30A G80A | 0.105
C21A C61G | 0.0997
C62A C85G | 0.88
C24A C84G | 0.563
C14A G40U | 0.261
G38A G54U | 0.073
G40U A45C | 0.295
U27G U37A | 0.119
C24U G74U | 0.143
C63A A70U | 0.812
G59A G67C | 1.05
C57U A87G | 0.979
A51G C62U | 1.01
U72C G80C | 0.19

Variant | self-cleavage
G1A G2C | 0.0773
A45G U69C | 0.72
U20G C33U | 0.0852
G10A C62G | 0.456
C62A G68U | 0.939
U65C G80A | 0.356
C44G U65G | 0.688
C58A A70G | 0.807
G2U U79A | 0
G6C A45C | 0.185
C26A U65G | 0.646
C22G G55C | 0.109
C30G G40A | 0.0923
G11A G68C | 0.256
G11C A43G | 0.0536
A16C C66G | 0.554
U23G C32A | 0.0652
G52C C63A | 1.05
G11U C24U | 0.111
U9A G81A | 0.396
C33A U37A | 0.151
G53C G81C | 0.0665
C22A A42C | 0
U27G G55A | 0.806

Variant | self-cleavage
C18U G67A | 0.468
G31U G59C | 0.57
G40A G81A | 0.475
G67C U72A | 0.682
U23A A87U | 0.99
C4U A71U | 0.776
G2A U60C | 0.354
C33U G67A | 0.749
C15G A71G | 0.727
C66G C85U | 0.933
U9A G59U | 1.41
G40C U65C | 0.155
A8C A56C | 0.692
C15U A78G | 0.332
G5U A77G | 0.227
A56U C58G | 1.08
G11C C14G | 0
C66U U72A | 0.525
C21A C26U | 0
C30G U65G | 0.0346
C44U G81A | 0.224
C7G U27A | 0.217
U9A C36U | 1.02
G68U U72C | 0.237

Variant | self-cleavage
C19U G31A | 0.102
G17U G25C | 0.0811
C14U C66U | 1.25
C48G C75G | 0.0639
G25A A77U | 0
G28C U46A | 0.107
C7U G50A | 0.786
C48G C62G | 0.269
C41U C57G | 1.09
G76A A87U | 1.08
C21G G55C | 0.135
C3G G73C | 0.272
C13A G74C | 0.0346
C18G G81U | 0
C26A U60A | 1.02
C44U G53U | 0.831
C13U G81A | 0.189
A43U A83U | 0.125
U27C G73C | 0.332
G5C C63G | 0
C4A U69C | 0.277
U27C G40C | 0.415
G28A C75A | 0.121
